Assay [1] deals with T1, Cynomolgus B7-H3-His (Sino Biological, Cat. No. 90806-C08H) (cynomolgus monkey).
T1 construct: Bought reagent; also called cynomolgus monkey B7-H3; monkey B7-H3
The assay is described as follows: ELISA, plate coated with cynomolgus B7-H3-His, detection with anti-human IgG HRP, OD450. The method, then:
The binding activity of antibodies was analyzed by protein based ELISA. Cynomolgus B7-H3-His (0.5 μg/well, Sino Biological, Cat. No. 90806-C08H) was coated on 96-well ELISA plates. The anti-B7-H3 antibodies of the present disclosure was used as the primary antibody and added to the ELISA plates in 5-fold gradient dilution starting from 2 μg/mL with a total of 8 concentrations: 2,000 ng/mL, 400 ng/mL, 80 ng/mL, 16 ng/mL, 3.2 ng/mL, 0.64 ng/mL, 0.128 ng/mL, and 0.0256 ng/mL respectively. The plates were incubated at 37° C. for 2 h with AB06.12-4P as the positive control antibody. Anti-Human IgG HRP (Jackson, 109-035-003, 1:10,000) was used as the secondary antibody. Color developing solution TMB (3,3′,5,5′-tetramethylbenzidine) was added to the plate, and microplate reader (Thermo, Multiskan FC) was used to read OD450 value after termination of the reaction. EC₅₀ was generated by GraphPad.
For orientation: In an ELISA, binding on a coated surface is turned into a signal by an enzyme label.

Assay [2] deals with T2, B7-H3 on surface of tumor cell (786-0, MDA-MB-231, Raji-B7-H3 cells) (human, UniProt Q5ZPR3 29-534).
T2 construct: whole, on cells; The making of Raji-B7-H3 cells is not described; also called B7-H3 on the surface of tumor cells; human B7-H3
T2 sequence (looked up): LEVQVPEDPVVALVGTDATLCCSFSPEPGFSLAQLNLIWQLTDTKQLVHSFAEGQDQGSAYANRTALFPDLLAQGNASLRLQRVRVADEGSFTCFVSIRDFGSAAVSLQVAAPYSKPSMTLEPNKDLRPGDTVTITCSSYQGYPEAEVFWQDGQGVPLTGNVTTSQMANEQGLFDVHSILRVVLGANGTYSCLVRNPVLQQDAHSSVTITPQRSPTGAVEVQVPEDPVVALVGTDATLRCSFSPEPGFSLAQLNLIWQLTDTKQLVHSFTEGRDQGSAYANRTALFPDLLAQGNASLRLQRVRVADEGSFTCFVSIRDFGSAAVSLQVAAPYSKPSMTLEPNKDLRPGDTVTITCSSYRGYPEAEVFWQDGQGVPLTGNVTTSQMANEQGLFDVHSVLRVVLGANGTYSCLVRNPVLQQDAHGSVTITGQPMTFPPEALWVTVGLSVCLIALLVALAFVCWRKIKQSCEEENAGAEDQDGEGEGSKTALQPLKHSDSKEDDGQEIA
The assay is described as follows: FACS on MDA-MB-231 cells. The method, then: (§1) The binding activity of antibodies to B7-H3 on the surface of tumor cells was analyzed by FACS. Mean fluorescence intensity (MFI) and EC₅₀ detected by FACS indicate the binding activity of the antibody to cells. After 786-0 and MDA-MB-231 cells were digested, they were resuspended in 2% FBS-PBS solution and counted. After raji-B7-H3 cells were collected, they were resuspended in 2% FBS-PBS and counted. The above cells were plated in a cell plate with 1×10⁵ cells per well. The anti-B7-H3 antibody of the present disclosure was used as the primary antibody and added to cell plates in gradient dilution starting from 20 μg/mL with a total of 8 concentrations: 20,000 ng/mL, […], 2,000 ng/mL, 400 ng/mL, 80 ng/mL, 16 ng/mL, 3.2 ng/mL, and 0.64 ng/mL respectively. The plates were incubated at 4° C. for 1 h with hBRCA84D as the positive control antibody. PE-Anti-Human IgG (Biolegend, Cat. No. 409303, 1.25 μl/well) was used as the secondary antibody, washed, and detected for the fluorescence intensity generated by the binding of the antibody to the cell surface by a flow cytometer.

In assay [3] the target is T2, B7-H3 on surface of tumor cell (786-0, …). The assay can be described thus: FACS on 786-0 cells. The method, then:
as §1

Assay [4] shares this target. The assay can be described thus: FACS on Raji-B7-H3 cells. The method, then:
as §1

Assay [5] concerns the target T3, human 4Ig-B7-H3-His protein (human, UniProt Q5ZPR3 29-466).
T3 construct: also called human B7-H3 protein
T3 sequence: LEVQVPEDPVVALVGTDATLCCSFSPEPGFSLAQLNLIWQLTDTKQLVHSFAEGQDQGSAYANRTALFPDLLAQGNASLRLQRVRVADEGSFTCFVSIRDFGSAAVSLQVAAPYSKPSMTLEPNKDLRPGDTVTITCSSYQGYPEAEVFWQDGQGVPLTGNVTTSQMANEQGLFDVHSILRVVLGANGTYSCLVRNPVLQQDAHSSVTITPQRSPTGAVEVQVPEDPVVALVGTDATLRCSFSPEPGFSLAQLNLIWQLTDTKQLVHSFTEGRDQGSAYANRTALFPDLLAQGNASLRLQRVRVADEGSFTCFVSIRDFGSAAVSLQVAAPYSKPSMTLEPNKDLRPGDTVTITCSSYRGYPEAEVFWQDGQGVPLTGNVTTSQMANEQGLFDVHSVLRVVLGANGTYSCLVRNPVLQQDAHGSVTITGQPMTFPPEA
The assay is described as follows: ELISA, plate coated with human 4Ig-B7-H3-His, detection with anti-human IgG HRP, OD450. The method, then:
(§2) The binding activity of antibodies was analyzed by ELISA. 96-well ELISA plates were coated with human 4Ig-B7-H3-His protein or 2Ig-B7-H3-His protein (1 μg/well, prepared in Examples 1 and 2) and incubated overnight at 4° C. The plates were washed 3 times with 1×PBST and then blocked with 5% skim milk at 37° C. for 2 h. After washing 3 times with 1×PBST, the anti-B7-H3 antibody of the present disclosure was used as the primary antibody and added to the ELISA plates in 5-fold gradient dilution starting from 2 μg/mL with a total of 8 concentrations: 2,000 ng/mL, 400 ng/mL, 80 ng/mL, 16 ng/mL, 3.2 ng/mL, 0.64 ng/mL, 0.128 ng/mL and 0.0256 ng/mL respectively. The plates were incubated at 37° C. for 2 h with hBRCA84D as the positive control antibody. After washing 5 times with 1×PBST, Anti-Human IgG HRP (Jackson, 109-035-003, 1:5000) was used as the secondary antibody and incubated at 37° C. for 1 h. After washing 5 times with 1×PBST, color developing solution TMB was added to the plate, and microplate reader (Thermo, Multiskan FC) was used to read OD450 value after termination of the reaction. EC₅₀ was generated by GraphPad.

Assay [6] has as its target T4, human 2Ig-B7-H3-His protein (human, UniProt Q5ZPR3 29-463).
T4 sequence: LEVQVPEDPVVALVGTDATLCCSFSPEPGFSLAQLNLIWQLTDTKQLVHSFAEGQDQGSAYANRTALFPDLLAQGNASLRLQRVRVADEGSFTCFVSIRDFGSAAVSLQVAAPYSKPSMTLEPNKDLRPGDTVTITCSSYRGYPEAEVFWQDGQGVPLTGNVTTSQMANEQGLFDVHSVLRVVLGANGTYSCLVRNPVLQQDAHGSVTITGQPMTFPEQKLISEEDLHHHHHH
The assay can be described thus: ELISA, plate coated with human 2Ig-B7-H3-His, detection with anti-human IgG HRP, OD450. The method, then: as §2

Assay [7] has as its target T3, human 4Ig-B7-H3-His protein. The assay is described as follows: Biacore X100 SPR, 4Ig-B7-H3-His coupled to CM5 chip, antibody injected. An excerpt: The humanized anti-B7-H3 antibodies prepared in Example 4 were subjected to affinity assay by Biacore. The antigen 4Ig-B7-H3-His was first coupled to the surface of a CM5 chip (GE, Cat. No. BR100012), and the active groups of the uncoupled protein were blocked with ethanolamine. After the baseline was stable, the hu39-01, hu65-13, and hBRCA84D antibodies were respectively diluted in equal proportions. The diluted antibodies of each concentration were placed on the sample injection tray of the instrument in sequence, and the program was set to inject samples respectively.
For orientation: SPR reads the build-up and loss of mass on a sensor chip optically.

B1: hu51-G34K-12 (antibody, human IgG1, V domains shown)
VH: EVQLVESGGGLVKPGGSLRLSCAASGFTFSSFGMSWVRQAPGKGLEWVATINSGDNYSYSPDSVKGRFTISRDNAKNSLYLQMNSLRAEDTAVYYCARPHIFYYGSPAWFAYWGQGTLVTVSS
VL: DVVMTQSPLSLPVTLGQPASISCRSRQSLVHSNKNTYLHWFQQRPGQSPRLLIYKVSNRFSGVPDRFSGSGSGTDFTLKISRVEAEDVGVYYCSQSTHVPLTFGGGTKVEIK
notes: expressed in HEK293E; also called humanized anti-B7-H3 antibody hu51-G34K-12
The term EC50 (read off the curve) denotes the concentration giving half of the maximal effect. Read a high EC50 (read off the curve) as weaker potency. Broadly, the EC50 is the midpoint of the concentration-response curve. A lower EC50 goes with a more potent agent. By Kd is commonly meant the constant that tells how readily two partners part at equilibrium. Read a high Kd as a looser complex. The koff is the rate constant with which the complex falls apart. A word on the kon: it is the rate constant with which the complex forms. Read a low kon as slow association. In the case of B1, the entries for the “EC50 (read off the curve)” value in assay [1], in assay [5] and in assay [6] were ~6 ng/mL, ~5 ng/mL and ~5 ng/mL, respectively. The concentration giving a half-maximal response (EC50) stood at 0.0501 µg/mL in assay [2], 0.12 µg/mL in assay [3] and 0.12 µg/mL in assay [4]. In addition, the “Mean fluorescence intensity (MFI)” value is 156000 in assay [2], 584000 in assay [3] and 584000 in assay [4]. This molecule also registered an equilibrium dissociation constant (Kd) in assay [7] of 0.49 nM. Moreover, in assay [7], the off-rate constant (koff) turned out to be 0.000385 s⁻¹. Besides, in assay [7], the kon came to 785000 M⁻¹ s⁻¹.
